Key:
glioblastoma cells = experiment: Basal oxygen consumption in glioblastoma cells; type: cell-based; conditions: cells which express ApoO vs cells treated with shApoO (FIG. 14)
Text: Further, the inventors decided to investigate the effect of transforming gliobastoma cells so that they express ApoO. For this purpose, glioblastoma cells were transformed with an adeno-associated virus 9 comprising a polynucleotide encoding ApoO.
The inventors compared the oxygen consumption after treating glioblastoma cells with a short hairpin RNA (shApoO) silencing the expression of ApoO.

VDAC = experiment: Blue Native Page and GST pull-down with heart mitochondria protein extracts; type: binding, mouse; conditions: BN-PAGE and GST pull-down
Text: After ethical committee approval, all patients in this study gave written consent for sample collection and molecular analysis prior to inclusion. Patients were carefully selected by physicians from the Department of Cardiology, Toulouse University Hospital, prior to coronary by-pass surgery. Bioinformatics. Microarray expression data from human heart samples were downloaded from the GEO repository (GSE1145). This series consisted of 107 myocardial samples collected from patients undergoing cardiac transplantation whose failure arises from different etiologies (e.g. idiopathic dilated cardiomyopathy, ischemic cardiomyopathy, valvular cardiomyopathy, and hypertrophic cardiomyopathy) and from “normal” organ donors whose hearts cannot be used for transplants. Arrays were intensity normalized and hierarchical clustering (average group linkage, Pearson correlation, threshold r=0.8) was applied to identify groups of co-expressed genes. […] All ApoO sequences within the expression vectors were verified by DNA double strand sequencing using ABI PRISM®BigDye™ Terminator version 3.1 Ready reaction cycle sequencing kit (Life Technologies SAS, Villebon sur Yvette) and loaded on an ABI 3130XL DNA sequencing instrument (Life Technologies SAS, Villebon sur Yvette). […]

U87 cells = experiment: Caspase-3 activity in U87 glioblastoma transfectants; type: cell-based, human; conditions: U87 pTT-ApoO vs control pTT, 100 μM palmitate overnight (FIG. 13)
Protocol: U87 were obtained from the European Collection of Cell Cultures (Salisbury, England). p y, g) U87 cells were cultured in Dulbecco's modified Eagle medium (Life Technologies SAS, Villebon sur Yvette) adjusted to contain 1.5 g/liter sodium bicarbonate and supplemented with antibiotic-antimycotic solution (Life Technologies SAS, Villebon sur Yvette) and 10% fetal bovine serum (FBS, AbCys s.a., Paris). Cells were plated on 10-cm diameter tissue culture dish and grown in a 5% CO2 incubator at 37° C. with saturating humidity with medium changes every 2 days. U87 glioblastomas were stably transfected by electroporation and pools of transfectants were selected as previously described (Smih et al 2002). Western Blot Analysis Cultured cells were resuspended in RIPA buffer (0.15 M sodium chloride, 1% NP-40, 0.5% sodium deoxycholate, 0.1% SDS, 50 mM Tris, pH 8) in the presence of a mix protease inhibitors. The lysate was sonicated 6 s and centrifuged at 6,500 g for 10 min. […] Protein immune-band densitometry was quantified with the ImageJ software. […] Caspase-3 activities were measured using the Caspase-3 Substrate IV Fluorogenic substate (VWR, Strasbourg) and a Victor™ X5 2030 multilabel reader (Perkin Elmer, Courtaboeuf). […]
The inventors measured and compared the Caspase-3 activity in • control U87 cells (pTT); and • U87 transfectants cells overexpressing ApoO (pTT-ApoO).

B1: ApoO: 198-amino acid apolipoprotein, SEQ ID NO: 1; tested by overexpression from expression vectors or transgene (protein, listed as Homo sapiens)
chain: MFKVIQRSVGPASLSLLTFKVYAAPKKDSPPKNSVKVDELSLYSVPEGQSKYVEEARSQLEESISQLRHYCEPYTTWCQETYSQTKPKMQSLVQWGLDSYDYLQNAPPGFFPRLGVIGFAGLIGLLLARGSKIKKLVYPPGFMGLAASLYYPQQAIVFAQVSGERLYDWGLRGYIVIEDLWKENFQKPGNVKNSPGTK
oxygen consumption (glioblastoma cells): more important | interaction with VDAC (VDAC): excluded any interaction | Caspase-3 activity (U87 cells): significant increase

From patent publication US10272135B2, “Apolipoprotein O and fragments thereof for inducing apoptosis in a cancerous cell” (INSERM (INSTITUT NATIONAL DE LA SANTÉ ET DE LA RECHERCHE …, priority 2014, dated 2019)
